Substitutions are numbered along the chain they refer to.
T1: human Abl SH2 domain (human, UniProt P00519 112-232, limits assumed)
T1 construct: domain: SH2 domain; poly-histidine tagged in selection; tag cleaved for SPR and crystals; also called Ab1SH2; SH2 domain of Abl kinase
T1 sequence (looked up): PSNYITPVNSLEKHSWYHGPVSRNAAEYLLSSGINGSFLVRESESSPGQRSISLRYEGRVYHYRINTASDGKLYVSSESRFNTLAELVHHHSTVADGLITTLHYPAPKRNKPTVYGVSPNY

B1: SEQ ID NO 34 (designed binder)
chain: VSSVPTKLEVVAATPTSLLISWDAPAVTVHYYVITYGETGWWGPVQEFTVPGSKSTATISGLSPGVDYTITVYAYWKYSYKYSPISINYRT
B2: SEQ ID NO 35 (designed binder)
chain: B1 chain with H30D, W41A, W42F, P44S, V45G, T49E, Y75K, K77M, K81M, S83N
B3: SEQ ID NO 40 (designed binder)
chain: B1 chain with T28Y, V29H, H30Y, Y31V, V33L, W41G, W42N, G43S, Y75K, K81Q
B4: SEQ ID NO 43 (designed binder)
chain: B1 chain with H30V, Y31H, V33H, W41G, W42N, G43S, Y75D, K77Q, K81M
B5: SEQ ID NO 29 (designed binder)
chain: VSSVPTKLEVVAATPTSLLISWDAPAVTVVYYVITYGETGGNSPVQEFTVPGSKSTATISGLSPGVDYTITVYAWYTFQYDYYVTQSSPISINYRT
B6: SEQ ID NO 33 (designed binder)
chain: B5 chain with V30D, V33Y, T77Q, F78H, Q79D, Y80F, Y83H, T85W, Q86G
B7: SEQ ID NO 32 (designed binder)
chain: VSSVPTKLEVVAATPTSLLISWDAPAVTVDLYFITYGETGGNSPVQEFTVPGSKSTATISGLSPGVDYTITVYAWYYGYYGPQYTSPISINYRT
B8: SEQ ID NO 36 (designed binder)
chain: VSSVPTKLEVVAATPTSLLISWDAPAVTVVYYFITYGETGGNSPVQEFTVPGSKSTATISGLSPGVDYTITVYAWSYELTGDYLQQFSPISINYRT
B9: SEQ ID NO 42 (designed binder)
chain: VSSVPTKLEVVAATPTSLLISWDAPAVTVDYYVITYGETGGNSPVQEFEVPGSKSTATISGLSPGVDYTITVYATYGDAYWHYYYSPISINYRT
B10: SEQ ID NO 30 (designed binder)
chain: VSSVPTKLEVVAATPTSLLISWDAPAVTVDFYFITYGETGGNSPVQEFTVPGSKSTATISGLSPGVDYTITVYAWDNWDDYYYSPISINYRT
B11: SEQ ID NO 31 (designed binder)
chain: VSSVPTKLEVVAATPTSLLISWDAPAVTVVFYVITYGETGSYSGWQEFEVPGSKSTATISGLSPGVDYTITVYAYYYQNPESYYSPISINYRT
B12: SEQ ID NO 39 (designed binder)
chain: VSSVPTKLEVVAATPTSLLISWDAPAVTVDFYVITYGETGSYGSYPQAFEVPGSKSTATISGLSPGVDYTITVYTESEGYISSSPISINYRT
B13: SEQ ID NO 28 (designed binder)
chain: VSSVPTKLEVVAATPTSLLISWDAPAVTVDHYVITYGETGGYPSPVQTFTVPGSKSTATISGLSPGVDYTITVYAWDYDWYAIGSPISINYRT
B14: SEQ ID NO 38 (designed binder)
chain: VSSVPTKLEVVAATPTSLLISWDAPAVTVDYYVITYGETGVPYYGWQEFEVPGSKSTATISGLSPGVDYTITVYAYPGSNWFYDWWSPISINYRT
B15: SEQ ID NO 37 (designed binder)
chain: VSSVPTKLEVVAATPTSLLISWDAPAVTVVYYNITYGETGGNSPVQEFTVPGSKSTATISGLSPGVDYTITVYAWYEYGGYMEIDSPISINYRT
B16: SEQ ID NO 41 (designed binder)
chain: B15 chain with V30D, N33Y, E77W, Y78N, G79D, G80Y, E83S, I84S, D85M
B17: SEQ ID NO 12 (designed binder)
chain: VSSVPTKLEVVAATPTSLLISWDAPAVTVDHYNITYGETGAFWHYVQAFTVPGSKSTATISGLSPGVDYTITVYAEWDQYVVGSPISINYRT
B18: SEQ ID NO 270 (designed binder)
chain: NVSPPRRARVTDATETTITISWRTKTETITAFYVHAVPMLWVVNGIQRTIKPDVRSYTITGLQPGTSYTINLETLRMSSHYYPVVIDAST
B19: SEQ ID NO 262 (designed binder)
chain: NVSPPRSARVTDATETTITISWRTKTETITYFVVGAFPAYSAHVDIQRTIKPDVRSYTITGLQPGTGYIINLETLINATGYPVVIDAST
B20: SEQ ID NO 271 (designed binder)
chain: NVSPPRRARVTDATETTITISWRTKTETITSFYVRALPVSAWPIQRTIKPDVRSYTITGLQPGTGYNIGLVTLYYGASYVPVVIDAST
B21: SEQ ID NO 269 (designed binder)
chain: NVSPPRRARVTDATETTITISWRTKTETITAFNVYASPEYWRYGYFRFIQRTIKPDVRSYTITGLQPGTGYYIYLYTLYHKYGYYPVVIDAST
B22: SEQ ID NO 265 (designed binder)
chain: NVSPPRRARVTDATETTITISWRTKTETITYFHVNAQPSSPPWIQRTIKPDVRSYTITGLQPGTYYGISLYTLSWRGEYHPVVIDAST
B23: SEQ ID NO 272 (designed binder)
chain: NVSPPRRARVTDATETTITISWRTKTETITAFYVGAHPWYNLEIQRTIKPDVRSYTITGLQPGTGYVISLYTLWHHNEAPVVIDAST
B24: SEQ ID NO 266 (designed binder)
chain: NVSPPRRARVTDATETTITISWRTKTETITRFSVLAYPSKRTTYTPIQRTIKPDVRSYTITGLQPGTGYTIRLYTLSPYYWVYPVVIDAST
B25: SEQ ID NO 267 (designed binder)
chain: NVSPPRRARVTDATETTITISWRTKTETITWFYVSAFPLLVDGIQRTIKPDVRSYTITGLQPGTYYGINLYTLSSYPVVIDAST
B26: SEQ ID NO 268 (designed binder)
chain: NVSPPRRARVTDATETTITISWRTKTETITYFYVYAKPRYINSIQRTIKPDVRSYTITGLQPGTDYSIYLDTLYWGGEYGPVVIDAST
B27: SEQ ID NO 259 (designed binder)
chain: NVSPPRRARVTDATETTITISWRTKTETITYFSVYANPMYPFYIQRTIKPDVRSYTITGLQPGTYYEIYLGTLYYFATYPVVIDAST
B28: SEQ ID NO 274 (designed binder)
chain: NVSPPRRARVTDATETTITISWRTKTETITGFHVFASPWYSGSQSIQRTIKPDVRSYTITGLQPGTTYYIGLNTLYIPGHEPPVVIDAST
B29: SEQ ID NO 258 (designed binder)
chain: NVSPPRRARVTDATETTITISWRTKTETITYFSVLAHPLEVSSYSIQRTIKPDVRSYTITGLQPGTGYRIFLSTLRWYYGMPVVIDAST
B30: SEQ ID NO 275 (designed binder)
chain: NVSPPRRARVTDATETTITISWRTKTETITSFYVDAGPWYRPDAYEYIQRTIKPDVRSYTITGLQPGTGYSIQLYTLYAYAYLYPVVIDAST
B31: SEQ ID NO 277 (designed binder)
chain: NVSPPRRARVTDATETTITISWRTKTETITTFMVVAYPMFQYRIQRTIKPDVRSYTITGLQPGTSYTIYLQTLGYASWYPVVIDAST
B32: SEQ ID NO 276 (designed binder)
chain: NVSPPRRARVTDATETTITISWRTKTETITLFYVYAYPRYYPGIQRTIKPDVRSYTITGLQPGTSYSIYLSTLWDTKGYPVVIDAST
B33: SEQ ID NO 261 (designed binder)
chain: NVSPPRRARVTDATETTITISWRTKTETITYFKVRAYPAYNYGGWSIQRTIKPDVRSYTITGLQPGTYYSIYLDTLYLGAYWYPVVIDAST
B34: SEQ ID NO 264 (designed binder)
chain: NVSPPRRARVTDATETTITISWRTKTETITTFRVWARPYLYYWIQRTIKPDVRSYTITGLQPGTHYDIGLSTLSSTWYYPVVIDAST
B35: SEQ ID NO 273 (designed binder)
chain: NVSPPRRARVTDATETTITISWRTKTETITSFWVHAYPSGASGGIQRTIKPDVRSYTITGLQPGTNYGIALATLTHYYTYSPVVIDAST
B36: SEQ ID NO 263 (designed binder)
chain: NVSPPRRARVTDATETTITISWRTKTETITQFWVLAGPSVWTGRMSIQRTIKPDVRSYTITGLQPGTTYYIGLYTLQYYEYSPVVIDAST
B37: SEQ ID NO 260 (designed binder)
chain: NVSPPRRARVTDATETTITISWRTKTETITYFYVSAYPYYVAYDIQRTIKPDVRSYTITGLQPGTYYDINLSTLSYSDNSPVVIDAST

The binders below were run against T1, human Abl SH2 domain (assay: phage display selection hit, BL1 library).

Binding result, binds:
B1
B2
B3
B4
B5
B6
B7
B8
B9
B10
B11
B12
B13
B14
B15
B16

These binders were tested against human ubiquitin (human, UniProt P0CG48 1-76) (assay: phage display selection hit, BL1 library).

Binding result, binds:
B17

The binders below were run against T2, human serum albumin (human, UniProt P02768 25-609) (assay: cradle library selection hit).
T2 construct: also called HSA
T2 sequence (P02768 25-609 limits assumed): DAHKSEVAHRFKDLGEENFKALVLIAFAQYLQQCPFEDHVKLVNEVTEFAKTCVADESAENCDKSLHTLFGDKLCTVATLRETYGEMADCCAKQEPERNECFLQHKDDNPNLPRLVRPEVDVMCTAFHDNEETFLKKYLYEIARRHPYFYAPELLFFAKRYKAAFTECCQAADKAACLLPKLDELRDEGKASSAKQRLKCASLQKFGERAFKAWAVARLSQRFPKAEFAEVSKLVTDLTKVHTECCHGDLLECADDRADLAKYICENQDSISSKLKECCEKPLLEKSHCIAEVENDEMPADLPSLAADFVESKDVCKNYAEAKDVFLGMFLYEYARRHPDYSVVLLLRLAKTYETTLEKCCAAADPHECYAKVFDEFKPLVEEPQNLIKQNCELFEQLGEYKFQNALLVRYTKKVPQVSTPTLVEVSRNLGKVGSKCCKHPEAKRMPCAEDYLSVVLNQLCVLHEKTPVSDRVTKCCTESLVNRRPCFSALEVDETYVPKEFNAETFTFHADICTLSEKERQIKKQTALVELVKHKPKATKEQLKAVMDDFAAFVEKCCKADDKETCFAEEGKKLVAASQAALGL

Binding result, binds:
B18
B19
B20
B21
B22
B23
B24
B25
B26
B27
B28
B29
B30
B31
B32
B33
B34
B35
B36
B37

Reference: US20140057807A1 (UNIVERSITY OF CHICAGO, published 2014)
